Measured values as given in PMC3594189, “Cellular Catabolism of the Iron-Regulatory Peptide Hormone Hepcidin” (PLoS ONE, 2013).
No end group written: not given here.

Columns and labels:
[1] = target: T1, ECR293 cells expressing Fpn-GFP (Mus musculus, UniProt Q9JHI9); format: cell-based; conditions: for effect of lysosomal inhibitor on degradation of both hepcidin and ferroportin: chloroquine 100 µM or bafilomycin 100 nM for 20 h after 4 h TR-Hep loading, flow cytometry
T1 construct: expressed in transfected cells; host or cells: ECR293 (ECR-Fpn) cells, ponasterone-inducible
T1 sequence (Q9JHI9 1-570): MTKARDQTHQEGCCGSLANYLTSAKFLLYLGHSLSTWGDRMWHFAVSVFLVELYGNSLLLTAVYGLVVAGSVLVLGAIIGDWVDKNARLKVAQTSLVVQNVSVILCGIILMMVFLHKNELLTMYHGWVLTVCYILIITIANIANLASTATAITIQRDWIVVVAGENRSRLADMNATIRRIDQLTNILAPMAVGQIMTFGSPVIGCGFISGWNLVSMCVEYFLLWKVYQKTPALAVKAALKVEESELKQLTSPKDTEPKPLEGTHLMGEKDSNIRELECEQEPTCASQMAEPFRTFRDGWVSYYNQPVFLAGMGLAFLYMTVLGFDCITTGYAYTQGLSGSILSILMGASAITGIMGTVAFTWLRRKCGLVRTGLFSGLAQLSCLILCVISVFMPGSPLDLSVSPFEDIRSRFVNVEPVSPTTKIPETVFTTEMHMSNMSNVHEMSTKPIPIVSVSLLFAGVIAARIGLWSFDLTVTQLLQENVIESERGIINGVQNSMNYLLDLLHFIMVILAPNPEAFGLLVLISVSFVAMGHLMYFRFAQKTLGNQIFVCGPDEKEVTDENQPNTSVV
Procedure: ECR-Fpn cells were plated on poly-D-lysine-coated plates in the presence of 20 µM FAC, with or without 10 µM ponasterone. After 24 h, ponasterone was washed off, and cells were loaded with 1 µg/ml TR-Hep for 4 h. After 4 h, cells were washed with PBS, fresh media was added and cells were treated with or without lysosomal inhibitors chloroquine (100 µM) and bafilomycin (100 nM). Twenty hours after the addition of inhibitors, cells were trypsinized and resuspended at 1×10^6 cells/ml, and the intensity of red and green fluorescence was analyzed by flow cytometry at UCLA Jonsson Comprehensive Cancer Center and Center for AIDS Research Flow Cytometry Core Facility (supported by NIH awards CA-16 042 and AI-28 697, the UCLA AIDS institute, and the UCLA School of Medicine). Flow cytometry was performed on FACSVantage SE sorting flow cytometer with digital electronics (Becton Dickinson, San Jose, CA) and analyzed with FACSDiva software (Becton Dickinson). Cells not induced with ponasterone were used to establish a gate to exclude background fluorescence. Loss of cellular Fpn-GFP was quantified as % of green fluorescence in induced cells not treated with hepcidin. Degradation of cellular TR-Hep was measured as % of red fluorescence in induced cells treated with TR-Hep for 4 h.

[2] = target: T1, ECR293 cells expressing Fpn-GFP; format: cell-based
Procedure: ECR-Fpn cells were plated on poly-D-lysine coated plates in the presence of 20 µM FAC, with or without 10 µM ponasterone, and incubated at 37°C. After 24 h, cells were washed with PBS and 1 ml of serum free media was added. The cells were treated with 5×10^5 cpm of ^125I–hepcidin for 2 h (loading period) at 37°C. After 2 h the cells were washed 3 times with DMEM/10% fetal bovine serum to remove unbound ^125I-hepcidin and 1 ml serum-free media with 20 µM FAC was added to all wells. Cells were incubated at 37°C for 5 min, 4, 8 and 24 h after loading. To prevent lysosomal acidification and proteolysis, 100 nM bafilomycin was added to assigned wells for 24 h. The supernatant was collected, its radioactivity quantified by a gamma counter, and an aliquot subjected to HPLC analysis. The cells were washed once and centrifuged for 2 min at 12,000xg through a silicone oil layer (Nyosil M25, Nye, Fairhaven, MA). The radioactivity in cell pellets was determined by gamma counting (Beckman, Fullerton, CA).
Aliquots of the supernatants were analyzed by reversed-phase high-performance liquid chromatography (RP-HPLC) on Vydac C18 column (218TP54; Waters). Fractions were eluted over 30 minutes with an acetonitrile gradient (1 fraction per minute) and their radioactivity determined by gamma counting.

[3] = target: T2, Fpn-GFP expressing ECR293 cells (ferroportin) (Mus musculus, UniProt Q9JHI9); assay: Temperature and pH dependent 125I-hepcidin binding/internalization assay; format: cell-based
T2 construct: expressed in transfected cells; host or cells: ECR293 (ECR-Fpn) cells, ponasterone-inducible
T2 sequence (Q9JHI9 1-570): T1 sequence (Q9JHI9 1-570)
Procedure: ^125I-hepcidin (10^6 cpm, specific activity ∼10^7 cpm/µg) was added to ECR-Fpn cells plated on poly-D-lysine coated plates in the presence of 20 µM FAC, with or without 10 µM ponasterone. Cells were incubated with radiolabeled hepcidin at different temperatures (0, 15, 23 and 37°C) for 1 hour. For pH experiments, growth medium was replaced with media adjusted to pH of 2, 4, 5, 6, 7, 8 and 9 (without additional FAC) and radiolabeled hepcidin was added for 1 h at 37°C. Cells were washed with phosphate-buffered saline (PBS) to remove unbound radioactive hepcidin and centrifuged for 2 minutes at 12,000xg through a silicone oil layer (Nyosil M25; Nye). The radioactivity in cell pellets was determined by gamma counting. The temperature-dependence data are expressed in counts-per-minute (cpm), whereas pH-dependence data were normalized because of the variability in absolute cpm values between experiments and expressed as % of radioactivity at pH 7. The radioactivity of uninduced cells subtracted as background for each point.

[4] = cited from earlier work
Description: This study was the first to examine the fate of hepcidin from its initial binding to ferroportin to its cellular catabolism. We show here that hepcidin is internalized together with ferroportin and that both are degraded in lysosomes. Because of the small size of hepcidin (∼2.7 kD) and its weak binding to plasma proteins, glomerular filtration and proteolysis in proximal tubules is thought to be the major mechanism for hepcidin clearance from blood. Detectable concentrations of hepcidin in urine, indicative of peptide that escaped proteolysis in the proximal tubules, are consiste ...

Fpn-GFP expressing cells = target: T3, Fpn-GFP expressing cells (Mus musculus, UniProt Q9JHI9); assay: Confocal microscopy co-localization of TR-Hep with Fpn-GFP; format: cell-based
T3 construct: expressed in transfected cells; host or cells: ECR293 (ECR-Fpn) cells, ponasterone-inducible
T3 sequence (Q9JHI9 1-570): T1 sequence (Q9JHI9 1-570)
Procedure: ECR-Fpn cells were plated in a 12-well plate on 12 mm poly-D-lysine coated round coverslips (Becton Dickinson, Franklin Lakes, NJ) in the presence of 20 µM ferric ammonium citrate (FAC) with or without 10 µM ponasterone. FAC is added to the medium to prevent cellular iron depletion caused by prolonged Fpn-GFP overexpression. After 24 h, ponasterone was washed off, and cells were treated with 1 µg/ml TR-Hep at 37°C protected from light. After 1 hour, cells were washed with PBS two times and the coverslip was placed on a slide, sealed with clear nail polish and immediately analyzed. Images were scanned at the UCLA CNSI Advanced Light Microscopy Facility and the BRI Cell Imaging Facility on a Leica TCS-SP MP Confocal and Multiphoton Inverted Microscope (Heidelberg, Germany) equipped with an argon laser (488 nm blue excitation: JDS Uniphase), a 561 nm (green) diode laser (DPSS: Melles Griot), and a two photon laser setup consisting of a Spectra-Physics Millenia×532 nm green diode pump laser and a Tsunami Ti-Sapphire picosecond pulsed infrared laser tuned at 768 nm for UV excitation. Images were acquired using LCS Lite software (Leica Confocal Software, Leica Microsystems, Manheim, Germany).

ferroportin = conditions: naturally occurring urinary forms; cited from earlier work

CCN(CC)CCCC(C)Nc1ccnc2cc(Cl)ccc12 (stereo not drawn) [chloroquine]
effect of lysosomal inhibitor on degradation of both hepcidin and ferroportin [1]: completely prevented the degradation

CO/C1=C\C(C)=C\[C@@H](C)[C@@H](O)[C@@H](C)C/C(C)=C/C=C/[C@H](OC)[C@@H]([C@@H](C)[C@@H](O)[C@H](C)[C@@]2(O)C[C@@H](O)[C@H](C)[C@@H](C(C)C)O2)OC1=O [bafilomycin, reference compound]
effect of lysosomal inhibitor on degradation of both hepcidin and ferroportin [1]: completely prevented the degradation | effect of bafilomycin on cellular radioactivity ([2]; 100 nM bafilomycin for 24 h after 125I-hepcidin loading, gamma counting of cell pellets): increased the retention of radioactivity in cells

^125I-hepcidin: synthetic hepcidin with M21Y substitution iodinated with 125I (DTHFPICIFCCGCCHRSKCGYCCKT; disulfide (positions not given here); not fully specified (bridges); ends not checked; also: iodinated with 125I, site not given here; UniProt P81172 60-84, looked up, variant M21Y)
binding of 125I-hepcidin to Fpn-GFP expressing cells at temperatures below 37°C ([3]; 1 h at 0, 15, 23 and 37°C, cell-bound radioactivity by gamma counting (cpm), at least three experiments): decreased | radioactivity in cell pellets after loading [2]: almost complete loss of radioactivity

Hepcidin: 25-amino acid peptide hormone, principal regulator of plasma iron concentrations; synthetic hepcidin from Peptides International
binding to plasma proteins [4]: weak binding | specific binding at pH lower than 6 ([3]; pH 2, 4, 5, 1 h at 37°C, uninduced-cell background subtracted): did not bind specifically | binding to ferroportin at pH 9 ([3]; pH 9 among pH 2, 4, 5, 6, 7, 8 and 9, 1 h at 37°C, normalized to pH 7): highest binding

TR-Hep: synthetic hepcidin labeled with Texas Red-X succinimidyl ester
degradation of Fpn-GFP after TR-Hep ([1]; 24 h after addition of 1 µg/ml TR-Hep, green fluorescence by flow cytometry): nearly completely degraded | co-localization of red hepcidin with green ferroportin in vesicles (Fpn-GFP expressing cells; 1 µg/ml TR-Hep, 1 h, 37°C, induced cells, confocal microscopy): nearly complete co-localization | red fluorescence in uninduced cells (Fpn-GFP expressing cells; uninduced cells treated with TR hepcidin, data not shown): no detectable red fluorescence

hepcidin-20: degradation product of hepcidin-25 detected in urine, truncated at the N-terminus by 5 amino acids (ICIFCCGCCHRSKCGMCCKT; disulfide (positions not given here); ends not checked; also: disulfide bridges, pairing not given here; UniProt P81172 65-84, looked up)
activity relative to hepcidin-25 (ferroportin): much less active than hepcidin-25
